Biological target: T1, His-NEK8 (UniProt Q86SG6 1-692)
T1 construct: NEK8 (NIMA-related kinase 8); also called His-tagged NEK8; source: E. coli BL21, purified (Ni-NTA agarose)
T1 sequence (looked up): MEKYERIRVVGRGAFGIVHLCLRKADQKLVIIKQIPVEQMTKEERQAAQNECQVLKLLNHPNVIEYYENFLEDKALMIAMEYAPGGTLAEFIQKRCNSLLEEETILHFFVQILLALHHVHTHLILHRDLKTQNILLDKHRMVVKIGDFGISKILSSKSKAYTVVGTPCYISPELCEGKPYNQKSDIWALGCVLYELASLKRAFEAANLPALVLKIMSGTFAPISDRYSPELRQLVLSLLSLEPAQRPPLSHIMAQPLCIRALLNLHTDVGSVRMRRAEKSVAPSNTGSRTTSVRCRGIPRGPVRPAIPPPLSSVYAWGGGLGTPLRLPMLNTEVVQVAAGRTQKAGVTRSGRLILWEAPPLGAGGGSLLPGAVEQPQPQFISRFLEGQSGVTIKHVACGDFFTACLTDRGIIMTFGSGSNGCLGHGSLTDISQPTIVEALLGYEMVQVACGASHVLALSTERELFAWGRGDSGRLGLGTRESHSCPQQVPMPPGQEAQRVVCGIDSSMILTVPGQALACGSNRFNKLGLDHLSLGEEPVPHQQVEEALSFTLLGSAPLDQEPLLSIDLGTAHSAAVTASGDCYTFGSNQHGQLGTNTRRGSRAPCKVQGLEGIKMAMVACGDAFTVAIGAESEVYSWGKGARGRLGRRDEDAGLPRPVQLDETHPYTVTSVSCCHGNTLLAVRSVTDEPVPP
Assay: pull-down; GST affinity isolation: GST-tagged NEK8 or ASNS proteins on glutathione-Sepharose 4B beads incubated with His-tagged ASNS or NEK8 at 4 °C for five hours; wash with GST binding buffer (2 mM EDTA, 50 mM NaF, 100 mM NaCl, 1% NP-40); immunoblotting
Conditions: both partners purified

B1: GST-ASNS full-length (enzyme, UniProt P08243 1-561, looked up)
chain: MCGIWALFGSDDCLSVQCLSAMKIAHRGPDAFRFENVNGYTNCCFGFHRLAVVDPLFGMQPIRVKKYPYLWLCYNGEIYNHKKMQQHFEFEYQTKVDGEIILHLYDKGGIEQTICMLDGVFAFVLLDTANKKVFLGRDTYGVRPLFKAMTEDGFLAVCSEAKGLVTLKHSATPFLKVEPFLPGHYEVLDLKPNGKVASVEMVKYHHCRDVPLHALYDNVEKLFPGFEIETVKNNLRILFNNAVKKRLMTDRRIGCLLSGGLDSSLVAATLLKQLKEAQVQYPLQTFAIGMEDSPDLLAARKVADHIGSEHYEVLFNSEEGIQALDEVIFSLETYDITTVRASVGMYLISKYIRKNTDSVVIFSGEGSDELTQGYIYFHKAPSPEKAEEESERLLRELYLFDVLRADRTTAAHGLELRVPFLDHRFSSYYLSLPPEMRIPKNGIEKHLLRETFEDSNLIPKEILWRPKEAFSDGITSVKNSWFKILQEYVEHQVDDAMMANAAQKFPFNTPKTKEGYYYRQVFERHYPGRADWLSHYWMPKWINATDPSARTLTHYKSAVKA
notes: asparagine synthetase (ASNS), full-length (FL); also called FL
B1: binds.

— article PMC11702068, “NEK8 promotes the progression of gastric cancer by reprogramming asparagine metabolism” (Molecular Medicine, 2025)
